This note sets out measurements from paper PMC4780735.

First the molecules themselves.
B1: BaeS sensory kinase tagged with monomeric yellow fluorescent protein (BaeS-mYFP) [E. coli] / itself (parent)
chain: MKFWRPGITGKLFLAIFATCIVLLISMHWAVRISFERGFIDYIKHGNEQRLQLLSDALGEQYAQHGNWRFLRNNDRFVFQILRSFEHDNSEDKPGPGMPPHGWRTQFWVVDQNNKVLVGPRAPIPPDGTRRPILVNGAEVGAVIASPVERLTRNTDINFDKQQRQTSWLIVALATLLAALATFLLARGLLAPVKRLVDGTHKLAAGDFTTRVTPTSEDELGKLAQDFNQLASTLEKNQQMRRDFMADISHELRTPLAVLRGELEAIQDGVRKFTPETVASLQAEVGTLTKLVDDLHQLSMSDEGALAYQKAPVDLIPLLEVAGGAFRERFASRGLKLQFSLPDSITVFGDRDRLMQLFNNLLENSLRYTDSGGSLQISAGQRDKTVRLTFADSAPGVSDDQLQKLFERFYRTEGSRNRASGGSGLGLAICLNIVEAHNGRIIAAHSPFGGVSITVELPLERDLQREV

In this assay the parent is B1. Description: fluorescence anisotropy (homo-FRET) on cells. The conditions noted are these: with itself; ΔbaeS cells; Copper (10 μM) added at about 45 sec; plateau read at about 200-300 sec, before EDTA (100 μM); parent: 0.79; read off a plot. For orientation: Polarisation of emitted light reports the rotation of a fluorescent probe.
chain 1 H45A H65A H87A H101A: the response is 0.95 r/r0.
